Measurements as given in patent US10815297B2, “Antagonists of IL17C for the treatment of inflammatory disorders” (MorphoSys AG, priority 2011, dated 2020).

Test system: mouse CIA model (DBA1/J mice)
Assay: Mouse collagen induced arthritis (CIA) model, therapeutic protocol
Assay type: in vivo
Details: 10 mg/kg, 3x week, i.p., day 31 to day 46
Procedure: DBA1/J mice (male, 6-7 weeks old, approx 20 gram) were obtained from Centre d'Elevage Regional Janvier (Laval, France). Mice were kept on a 12 hr light/dark cycle (0700-1900). Temperature was maintained at 22° C., and food and water were provided ad libitum.
One day before the experiment, CII solution (2 mg/mL) was prepared with 0.05 M acetic acid and stored at 4° C. Just before the immunization, equal volumes of adjuvant […] and CII were mixed by a homogenizer in a pre-cooled glass bottle in an ice water bath. Extra adjuvant and prolonged homogenization may be required if an emulsion is not formed. 0.1 mL of the emulsion was injected intradermally at the base of the tail of each mouse on day 1, a second booster intradermal injection (CII solution at 2 mg/mL in […] 0.1 mLemulsion) was performed on day 21. This immunization method was modified from published methods (Brand et al, 2007, Collagen-induced arthritis. Nature Protocols; vol 2 (5): 1269-1275; Lin et al., 2007, Anti-rheumatic activities of histone deacetylase (HDAC) inhibitors in vivo in collagen-induced arthritis in rodents. Br J Pharmacol. April; 150 (7):829-31).
The therapeutic effects of the antibodies were tested in the mouse CIA model. Mice were randomly divided into equal groups and each group contained 10 mice. All mice were immunized on day 1 and boosted on day 21. Therapeutic dosing lasted from day 31 to day 46. The negative control group was treated with vehicle (PBS) and the positive control group with Enbrel (10 mg/kg, 3× week, i.p.). An antibody of interest was tested at 10 mg/kg, i.p. 3 times per week.
Anti-IL17C antibodies were administered i.p. three times a week at 10 mg/kg. […]
Arthritis was scored according to the method of Khachigian 2006 (Collagen antibody-induced arthritis. (2006) Nature Protocols 1, 2512-6), Lin et al 2007 (supra); Nishida et al. 2004 (Histone deacetylase inhibitor suppression of autoantibody-mediated arthritis in mice via regulation of p16INK4a and p21(WAF1/Cip1) expression. Arthritis Rheum. 10: 3365-76); and Brand et al. 2007 (supra). […]

B1: MOR12743: anti-mouse IL17C HuCAL antibody; CDRs SEQ ID NO: 31-36, VL 37, VH 38; human/mouse chimeric IgG2a (antibody, V domains shown)
VH: QVQLVQSGAEVKKPGASVKVSCKASGYTFTSNFIHWVRQAPGQGLEWMGWISPYNGDTNYAQKFQGRVTMTRDTSISTAYMELSRLRSEDTAVYYCARESVYYGSDYGYNGMDIWGQGTLVTVSS
VL: DIELTQPPSVSVSPGQTASITCSGDNLGEEYVSWYQQKPGQAPVLVIYDDTKRPSGIPERFSGSNSGNTATLTISGTQAEDEADYYCASWDLWSVEVFGGGTKLTVLGQ
modifications: mouse IgG2a constant regions; VH; VL
  inhibition of inflammation / disease progression (clinical score): significant inhibition
